# Test results reported in patent publication US20110093983A1, “ALGAL GLYCEROL-3 PHOSPHATE ACYLTRANSFERASE” (National Research Council of Canada, priority 2008, published 2011).
# B1: TpGPAT1: membrane-bound glycerol-3-phosphate acyltransferase from T. pseudonana, 674 amino acids, SEQ ID NO:2 (nucleotide SEQ ID NO:1) (protein, listed as Thalassiosira pseudonana)
# chain: MGVEKKGTMMSELDYTKAQLAFFYIVVLLSLDMLNPVKIFLHVFPAIKSWHIATFAIACMSYIFIVNLRELLYFATKVFFHSILSIFFNDVTVVGRENIPSHGPVIFTSNHANQFMDGLMIMCTCQRTISYLVADKSWNRPIIGHLAWMMGGVPVKRAQDSACKGTGKISIDLNALAGSDAVINVVGKGTSFTSQIKAGDKIRLPNNAIGIKVESIESDESMSLKVEDGVAEVLSSHPFPEYVTYDILPRIDQKDVYQNVLEKLASGGTIGIFPEGGSHDRTDLLPLKVGVALIAYSELEKDGINVPIVPVGLNYFRAHRFRGKATVEFGSPTYIEPSTLADYKKGGADKRRVCNDLLARIENSMRSVIVSVPDFETLQTIHAARRLYRQDGRNETAEQRQDMGRRFAEGYKRVLLQLGGEPPEEWLSLQSRILAYQKELNELGIRDYQVVGLDHEEVELGSESQGHSKADTVLHRMNVFGHIVHLFVIAVLAALPAMLLNLPVGLASRIYSNRRRKVALAASKVKVKGYDVMLSERVLACIVLVPSLWVVYGLLLSLFTSLDGPSLAVCFTCFPLFSYWSIMATESGMVDIKDLRPYVMRMIPSARRRLAALPATRKALRSDLRAMIKKIGPSLGDIYYEKDLNWQKIQMETKRMSMEELDPAQKDEAAKKEE
# Assays:
# Format in all cases: cell-based, Saccharomyces cerevisiae
# yeast gat1 mutant [1] = assay: Incorporation of fed EPA or DHA into TAGs and phospholipids of yeast gat1 mutant; details: for mol % of FA in Phospholipids, DHA / mol % of FA in Phospholipids, EPA / mol % of FA in TAGS, DHA / mol % of FA in TAGS, EPA: 3-day induction
# Procedure: (§1) Yeast cultures were grown at 28° C. in the presence of 2% (w/v) glucose and 1% (w/v) Tergitol NP-40 (Sigma, St. Louis, Mo., US). Expression of the transgene was induced at OD600 nm 0.2 to 0.3 by supplementing galactose to 2% (w/v). At that time, the appropriate FAs were added to a final concentration of 50 or 100 μM in the presence of 1% (w/v) Tergitol NP-40 (Sigma, St. Louis, Mo., US). Yeast cells (20 ml) were harvested after a 3-day incubation, total lipids from yeast homogenates were extracted using the procedure of Schneiter (2005). Separation of neutral lipids and polar lipids was performed by running the thin layer chromatography plates (Si 250-PA, Baker, Phillipsburg, N.J.) in a developing solvent of hexane: ether: acetic acid (70:30:1, v/v) and identified by co-migration with known standards. Spots corresponding to TAG and phospholipid were scraped off the TLC plates and were transmethylated with methanolic HCl and quantified by gas chromatography as described previously. (Zheng and Zou, 2001).
# Yeast gat1 strain transformed with TpGPAT or empty vector pYES2.1 was grown in the presence of EPA or DHA, while being induced by galactose. Triacylglycerols (TAGS) and phospholipids from the 3-day culture were extracted and analyzed by gas chromatography for fatty acid composition. […] It was not clear if this were due to the low GPAT activity for these VLCPUFAs or the lack of EPA and DHA-CoA in the cells.
# yeast gat1 mutant [2] = assay: Lipidomic analysis of phospholipids from yeast gat1 transformed with TpGPAT or GAT1, fed EPA or DHA; details: tandem mass spectrometer lipidomics
# Excerpt: FIG. 4 graphically depicts the results of the lipidomic analysis (fatty acid composition) of the lipids from yeast gat1 mutants transformed with either TpGPAT1 or GAT1. Yeast cells expressing TpGPAT or yeast GAT1 were fed with EPA (20:5) or DHA (22:6) upon induction of the genes. Total lipids from the yeast cells were extracted and subjected to lipidomic analysis using a tandem mass spectrometer. The results are presented as the molar ratio of EPA- or DHA-containing phospholipids (PC, PE, PS, PI) in the total phospholipids.
# To further determine the role of TpGPAT in the incorporation of VLGPUFAs into glycerolipids, yeast gat1 strain transformed with TpGPAT or GAT1 under the control of the GAL1 promoter was grown in the presence of EPA (20:5) or DHA (22:6) upon induction of the genes. Phospholipids were extracted and subjected to lipidomic analysis using a tandem mass spectrometer (testing conducted by the Kansas Lipidomics Research Center). […] It was thus concluded that TpGPAT has a role in controlling PUFA accumulation in glycerolipid.
# yeast gat1 mutant [3] = assay: Fatty acid composition of TAG and phospholipids from yeast gat1 mutant expressing TpGPAT1; details: for Proportion of Fatty Acid 16:0 / Proportion of Fatty Acid 16:1 / Proportion of Fatty Acid 18:0 / Proportion of Fatty Acid 18:1 / Proportion of Fatty Acid Sats / Proportion of Fatty Acid Unsats: 3-day induction with 2% galactose, average ± SD, three replicates
# Procedure: as §1
# To investigate if the over-expression of TpGPAT has any effect on the fatty acids composition of yeast lipids in vivo, the gall cells harboring TpGPAT or an empty vector as control were induced for 3 days by galactose at 28° C. The total lipids was extracted and then separated into triacylglycerols (TAGS) and phospholipids by TLC for the analysis of fatty acid composition. […] Approximately 12% and 18% increase of 16:0 in phospholipids and triacylglycerols, respectively, turned 16:0 into the most dominant fatty acid in the TpGPAT expressing yeast cells, instead of 16:1 fatty acid in the mutant cells harboring the empty vector. Conversely, the unsaturated fatty acids, 16:1 and 18:1, were reduced to 15% and 21% in these two lipid species. […] Collectively, the results strongly support the finding in the in vitro substrate specificity assay that 16:0 is the most preferred substrate for TpGPAT.
molecule,measurement,setting,value
B1,"mol % of FA in Phospholipids, DHA",yeast gat1 mutant [1]; feeding concentration 50 μM,0.22 ± 0.03 mol %
same,"mol % of FA in Phospholipids, EPA",yeast gat1 mutant [1]; feeding concentration 50 μM,0.42 ± 0.01 mol %
same,"mol % of FA in TAGS, DHA",yeast gat1 mutant [1]; feeding concentration 50 μM,0.70 ± 0.06 mol %
same,"mol % of FA in TAGS, EPA",yeast gat1 mutant [1]; feeding concentration 50 μM,1.18 mol %
same,"mol % of FA in Phospholipids, DHA",yeast gat1 mutant [1]; feeding concentration 100 μM,0.34 ± 0.02 mol %
same,"mol % of FA in Phospholipids, EPA",yeast gat1 mutant [1]; feeding concentration 100 μM,0.85 ± 0.15 mol %
same,"mol % of FA in TAGS, DHA",yeast gat1 mutant [1]; feeding concentration 100 μM,1.10 ± 0.07 mol %
same,"mol % of FA in TAGS, EPA",yeast gat1 mutant [1]; feeding concentration 100 μM,3.38 ± 0.78 mol %
same,Impact on incorporation of LCPUFAs into TAG or phospholipids compared to empty vector control,"yeast gat1 mutant [1]; yeast gat1 grown in presence of EPA or DHA, 3-day culture",did not have much impact
same,Molar percentage of DHA in phospholipids,yeast gat1 mutant [2]; yeast gat1 fed DHA (22:6),0.563%
same,Molar percentage of EPA in phospholipids,yeast gat1 mutant [2]; yeast gat1 fed EPA (20:5),3.696%
same,Proportion of Fatty Acid 16:0,yeast gat1 mutant [3]; Phospholipids,31.10 ± 3.78 mol %
same,Proportion of Fatty Acid 16:1,yeast gat1 mutant [3]; Phospholipids,34.15 ± 2.74 mol %
same,Proportion of Fatty Acid 18:0,yeast gat1 mutant [3]; Phospholipids,8.92 ± 1.49 mol %
same,Proportion of Fatty Acid 18:1,yeast gat1 mutant [3]; Phospholipids,25.45 ± 2.25 mol %
same,Proportion of Fatty Acid Sats,yeast gat1 mutant [3]; Phospholipids,40.02 ± 4.57 mol %
same,Proportion of Fatty Acid Unsats,yeast gat1 mutant [3]; Phospholipids,59.83 ± 4.61 mol %
same,Proportion of Fatty Acid 16:0,yeast gat1 mutant [3]; TAG,41.80 ± 2.17 mol %
same,Proportion of Fatty Acid 16:1,yeast gat1 mutant [3]; TAG,29.15 ± 1.61 mol %
same,Proportion of Fatty Acid 18:0,yeast gat1 mutant [3]; TAG,9.17 ± 1.22 mol %
same,Proportion of Fatty Acid 18:1,yeast gat1 mutant [3]; TAG,18.94 ± 0.99 mol %
same,Proportion of Fatty Acid Sats,yeast gat1 mutant [3]; TAG,50.97 ± 2.85 mol %
same,Proportion of Fatty Acid Unsats,yeast gat1 mutant [3]; TAG,48.49 ± 2.44 mol %
same,Increase of 18:0 versus empty vector,"yeast gat1 mutant [3]; yeast gat1, both TAG and phospholipids",3-4%
same,Reduction of unsaturated fatty acids 16:1 and 18:1 in phospholipids versus empty vector,"yeast gat1 mutant [3]; yeast gat1, phospholipids",15%
same,Increase of 16:0 in triacylglycerols versus empty vector,"yeast gat1 mutant [3]; yeast gat1, triacylglycerols",~18%
same,Reduction of unsaturated fatty acids 16:1 and 18:1 in triacylglycerols versus empty vector,"yeast gat1 mutant [3]; yeast gat1, triacylglycerols",21%
